Source: publication PMC11068011 (Science Advances, 2024)

Biological target: T1, Recombinant p47-GST (human, UniProt Q9UNZ2 1-370)
T1 construct: p47 (NSFL1C), recombinant, bought (Novus H00055968-P01); source: bought: Novus, H00055968-P01, purified from wheat germ
T1 sequence (looked up): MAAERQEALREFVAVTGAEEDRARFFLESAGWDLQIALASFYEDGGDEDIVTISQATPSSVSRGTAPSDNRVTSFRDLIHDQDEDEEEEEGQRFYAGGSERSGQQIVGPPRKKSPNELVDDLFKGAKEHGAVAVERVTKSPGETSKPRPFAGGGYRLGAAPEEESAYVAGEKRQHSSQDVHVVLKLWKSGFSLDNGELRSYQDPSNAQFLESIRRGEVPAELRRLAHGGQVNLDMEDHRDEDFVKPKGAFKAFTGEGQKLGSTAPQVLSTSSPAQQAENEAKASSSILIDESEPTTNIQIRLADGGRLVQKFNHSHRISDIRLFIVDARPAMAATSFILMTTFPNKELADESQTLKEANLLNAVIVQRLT
Assay: pull-down; In vitro binding assay: 1 μg p47-GST and 2 μg p37 (WT or SHP), with or without 2 μg purified VCP, 1 hour at 4°C, then glutathione beads 1 hour; 25 mM Hepes pH 7.4, 150 mM NaCl, 0.01% Triton X-100, 5% glycerol
Details: both partners purified

B1: purified WT p37 (natural protein, human, UniProt Q14CS0 1-331, looked up)
chain: MAEGGGPEPGEQERRSSGPRPPSARDLQLALAELYEDEVKCKSSKSNRPKATVFKSPRTPPQRFYSSEHEYSGLNIVRPSTGKIVNELFKEAREHGAVPLNEATRASGDDKSKSFTGGGYRLGSSFCKRSEYIYGENQLQDVQILLKLWSNGFSLDDGELRPYNEPTNAQFLESVKRGEIPLELQRLVHGGQVNLDMEDHQDQEYIKPRLRFKAFSGEGQKLGSLTPEIVSTPSSPEEEDKSILNAVVLIDDSVPTTKIQIRLADGSRLIQRFNSTHRILDVRNFIVQSRPEFAALDFILVTSFPNKELTDESLTLLEADILNTVLLQQLK
notes: p37 (UBXN2B), human, wild type, from pGEX-6P-1 p37; also called p37 WT; p37WT; source: E. coli Rosetta 2 BL21 (DE3), purified (glutathione sepharose, eluted by PreScission cleavage)
**Q.** Does B1 bind?
**A.** Result: binds
